# B1: N-terminal head domain of human CCDC61 (hCCDC61^1-143) (domain or fragment)
# chain: GSMDQPAGLQVDYVFRGVEHAVRVMVSGQVLELEVEDRMTADQWRGEFDAGFIEDLTHKTGNFKQFNIFCHMLESALTQSSESVTLDLLTYTDLESLRNRKMGGRPGSLAPRSAQLNSKRYLILIYSVEFDRIHYPLPLPYQGKP
# notes: extra residues Gly-Ser left at the N-terminus after the His-GST tag was cleaved with tev protease; gene codon optimized for E. coli and synthesized; The crystal (PDB 6HXT) was of the seleno-methionine-substituted protein; also called hCCDC61 head domain; source: E. coli BL21(DE3), purified (GSTrap, tev cleavage, HisTrap flow through, HiTrap Q, PD-10); not shown: His tag, N-terminal, cleaved; GST, …
# B2: zebrafish CCDC61 (residues 1–170; zCCDC61^1-170), lipoyl-domain tag removed (domain or fragment, zebrafish (Danio rerio))
# chain: GGSMEVGTVVQEEMKFRGSEFAVKVEMAERLLIVEISDVVTADQWRGEFGPAYIEDLTRKTGNFKQFPVFCSMLESAVHKSSDSVTLDLLTYSDLELLRNRKAGVVGRPRAQPQSPALSAKRYLILIYTVEFDRIHYPLPLPYLGKPDPAELQKEIRALRSELKTLGLRGDHK
# notes: extra residues Gly-Gly-Ser left at the N-terminus after the tag was cleaved with tev protease; zebrafish (Danio rerio) CCDC61, residues 1-170, head and part of the coiled-coil domain; Homo-tetramer in the crystal; source: E. coli C41, purified (Ni-NTA, tev cleavage, HisTrap FF, HiTrap Q HP flow through, PD-10); not shown: His tag, N-terminal, cleaved; lipoyl domain (Bacillus stearothermophilus …)
# B3: His6-lipoyl-zCCDC61^1-170 (domain or fragment, zebrafish (Danio rerio), UniProt Q08CF3 1-170, looked up)
# chain: MEVGTVVQEEMKFRGSEFAVKVEMAERLLIVEISDVVTADQWRGEFGPAYIEDLTRKTGNFKQFPVFCSMLESAVHKSSDSVTLDLLTYSDLELLRNRKAGVVGRPRAQPQSPALSAKRYLILIYTVEFDRIHYPLPLPYLGKPDPAELQKEIRALRSELKTLGLRGDHK
# notes: zebrafish (Danio rerio) CCDC61, residues 1-170; The His6-lipoyl domain tag was retained for SEC-MALS to stabilize the protein at high concentrations; also called Lipo-zCCDC61^1-170; wild-type; source: E. coli C41 in 2xTY, purified (Ni-NTA, SEC, HiTrap Q-FF); not shown: His6, N-terminal, kept; lipoyl domain (Bacillus stearothermophilus dihydrolipoamide acetyltransferase), N-terminal, kept
# B4: His6-lipoyl-zCCDC61^(1-170; F129E/D130A) (domain or fragment, zebrafish (Danio rerio), UniProt Q08CF3 1-170, looked up)
# chain: MEVGTVVQEEMKFRGSEFAVKVEMAERLLIVEISDVVTADQWRGEFGPAYIEDLTRKTGNFKQFPVFCSMLESAVHKSSDSVTLDLLTYSDLELLRNRKAGVVGRPRAQPQSPALSAKRYLILIYTVEEARIHYPLPLPYLGKPDPAELQKEIRALRSELKTLGLRGDHK
# notes: zebrafish (Danio rerio) CCDC61, residues 1-170, with F129E and D130A; also called Lipo-zCCDC61^(1-170); head-to-head dimerization-deficient mutant; source: E. coli C41 in 2xTY, purified (Ni-NTA, SEC, HiTrap Q-FF); not shown: His6, N-terminal, kept; lipoyl domain (Bacillus stearothermophilus dihydrolipoamide acetyltransferase), N-terminal, kept
# What was measured:
# [1] = target: the molecule itself; assay: AUC; sedimentation equilibrium, 12, 4 and 1.3 mg/ml, 11,600, 19,700 and 34,000 rpm, 4°C; dimer to monomers
# [2] = target: the molecule itself; assay: AUC; velocity sedimentation, approximately 480 μM (7.9 mg/ml), 20 mM Tris-HCl pH 8.0, 150 mM NaCl, 2 mM DTT, 50,000 rpm, 4°C; c(s) distribution
# [3] = target: the molecule itself; assay: crystal structure; zCCDC61^1-170, 4.62 mg/ml, 100 mM Citric acid pH 5.0, 1 M LiCl, sitting drop, 20°C
# [4] = target: the molecule itself; assay: SEC-MALS; Superdex S200 10/300, 10mM Tris-HCl pH 7.4, 150mM NaCl, room temperature; loaded at 1, 6.5 and 65 mg/ml (wild type) and 1, 6.8 and 73 mg/ml (F129E/D130A)
protein,measurement,setting,value
B1,Kd,[1],170 ± 18 µM
same,stoichiometry N,[2],2
B2,stoichiometry N,[3],4
B3,binding result,[4],binds
B4,binding result,[4],binds
